Measured values taken from patent publication US20160185837A1 (Medimmune Limited, priority 2013, published 2016).
Read-outs that look alike come from different tables or passages of the source.

T1: human GIP receptor (hGIPr) (Homo sapiens, UniProt P48546)
T1 construct: expressed in transfected cells
T1 sequence (P48546 22-466): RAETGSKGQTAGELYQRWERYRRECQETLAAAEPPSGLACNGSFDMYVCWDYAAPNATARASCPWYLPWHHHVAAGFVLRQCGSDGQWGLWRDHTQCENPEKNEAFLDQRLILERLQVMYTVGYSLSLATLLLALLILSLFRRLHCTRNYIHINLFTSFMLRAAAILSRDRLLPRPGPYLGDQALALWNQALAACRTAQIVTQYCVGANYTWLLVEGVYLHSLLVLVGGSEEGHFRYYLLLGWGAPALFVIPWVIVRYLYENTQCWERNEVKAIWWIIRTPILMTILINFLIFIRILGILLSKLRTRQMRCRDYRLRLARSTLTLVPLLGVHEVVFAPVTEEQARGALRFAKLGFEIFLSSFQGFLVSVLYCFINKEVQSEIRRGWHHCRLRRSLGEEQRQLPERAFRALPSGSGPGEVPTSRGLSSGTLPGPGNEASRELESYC

T2: mouse GLP-1 receptor (mGLP-1r) (Mus musculus, UniProt O35659)
T2 construct: expressed in transfected cells; host or cells: HEK293s or CHO cells
T2 sequence (O35659 22-463): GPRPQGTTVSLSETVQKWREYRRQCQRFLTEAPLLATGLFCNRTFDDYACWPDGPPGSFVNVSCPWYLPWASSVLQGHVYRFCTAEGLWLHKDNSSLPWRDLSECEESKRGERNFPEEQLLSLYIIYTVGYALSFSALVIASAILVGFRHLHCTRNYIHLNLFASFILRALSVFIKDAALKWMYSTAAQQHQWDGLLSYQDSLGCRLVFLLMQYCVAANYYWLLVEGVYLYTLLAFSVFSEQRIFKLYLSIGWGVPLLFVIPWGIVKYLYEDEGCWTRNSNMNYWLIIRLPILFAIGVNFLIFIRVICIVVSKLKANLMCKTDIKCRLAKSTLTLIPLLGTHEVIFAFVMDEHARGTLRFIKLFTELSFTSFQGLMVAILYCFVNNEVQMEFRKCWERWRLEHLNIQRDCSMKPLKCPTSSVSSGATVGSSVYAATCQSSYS

T3: mouse GIP receptor (mGIPr) (Mus musculus, UniProt Q0P543)
T3 construct: expressed in transfected cells; host or cells: HEK293s or CHO cells
T3 sequence (Q0P543 19-460): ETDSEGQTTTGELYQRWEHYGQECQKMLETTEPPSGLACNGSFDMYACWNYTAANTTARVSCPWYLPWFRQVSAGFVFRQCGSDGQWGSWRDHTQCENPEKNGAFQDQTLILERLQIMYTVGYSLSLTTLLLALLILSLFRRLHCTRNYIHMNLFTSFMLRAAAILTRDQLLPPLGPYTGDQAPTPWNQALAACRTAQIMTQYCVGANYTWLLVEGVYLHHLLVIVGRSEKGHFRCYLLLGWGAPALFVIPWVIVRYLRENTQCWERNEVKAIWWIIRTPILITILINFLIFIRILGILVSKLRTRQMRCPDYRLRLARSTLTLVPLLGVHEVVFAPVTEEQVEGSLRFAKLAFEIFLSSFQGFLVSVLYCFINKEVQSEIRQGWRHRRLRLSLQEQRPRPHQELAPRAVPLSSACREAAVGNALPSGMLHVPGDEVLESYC

T4: rat GLP-1 receptor (rGLP-1r) (Rattus norvegicus, UniProt P32301)
T4 construct: expressed in transfected cells; host or cells: HEK293s or CHO cells
T4 sequence (P32301 22-463): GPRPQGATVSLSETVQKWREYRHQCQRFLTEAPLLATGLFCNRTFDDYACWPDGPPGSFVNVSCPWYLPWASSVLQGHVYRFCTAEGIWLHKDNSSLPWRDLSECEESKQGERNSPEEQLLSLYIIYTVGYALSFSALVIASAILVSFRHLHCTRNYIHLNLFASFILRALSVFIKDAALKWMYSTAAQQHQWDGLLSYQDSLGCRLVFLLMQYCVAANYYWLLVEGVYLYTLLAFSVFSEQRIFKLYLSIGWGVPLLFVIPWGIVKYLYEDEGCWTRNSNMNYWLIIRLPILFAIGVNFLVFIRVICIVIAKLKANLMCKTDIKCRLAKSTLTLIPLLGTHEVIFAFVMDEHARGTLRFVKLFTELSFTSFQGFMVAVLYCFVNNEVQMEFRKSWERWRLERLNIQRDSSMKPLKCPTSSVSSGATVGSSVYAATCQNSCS

T5: rat GIP receptor (rGIPr) (Rattus norvegicus, UniProt P43219)
T5 construct: expressed in transfected cells; host or cells: HEK293s or CHO cells
T5 sequence (P43219 19-455): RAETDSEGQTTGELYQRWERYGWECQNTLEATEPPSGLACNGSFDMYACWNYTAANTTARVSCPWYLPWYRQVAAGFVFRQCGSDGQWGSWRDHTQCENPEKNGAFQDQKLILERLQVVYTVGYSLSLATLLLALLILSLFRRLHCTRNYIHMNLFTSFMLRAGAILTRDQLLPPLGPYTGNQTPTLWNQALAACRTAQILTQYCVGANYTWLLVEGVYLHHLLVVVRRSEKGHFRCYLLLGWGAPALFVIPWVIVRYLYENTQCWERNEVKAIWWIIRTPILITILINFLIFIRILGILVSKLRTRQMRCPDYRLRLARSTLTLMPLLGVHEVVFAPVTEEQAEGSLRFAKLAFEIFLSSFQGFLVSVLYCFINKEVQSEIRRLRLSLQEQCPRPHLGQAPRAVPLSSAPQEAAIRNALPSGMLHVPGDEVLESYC


What was measured:
Assay type in all cases: cell-based
[1] = molecular target: T6, human GLP-1 receptor (hGLP-1r) (Homo sapiens, UniProt P43220); assay: BSA-cAMP assay, cells expressing human GLP-1 receptor; details: BSA-cAMP assay
T6 construct: expressed in transfected cells
Outline: (§1)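 EC50 came from an unconstrained 4-parameter logistic fit of HTRF cAMP data expressed as percent of maximal native agonist activation, tested on two occasions. Thawed receptor-expressing cells (hGLP-1r, hGIPr at 0.5×10^5 cells/ml) treated 30 min at room temperature in 0.1% BSA-containing medium; two distinct hGIPr lines.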

[2] = molecular target: T1, human GIP receptor (hGIPr); assay: BSA-cAMP assay, cells expressing human GIP receptor; details: BSA-cAMP assay
Outline: as §1

[3] = molecular target: T7, human glucagon receptor (GCGr) (Homo sapiens, UniProt P47871); assay: BSA-cAMP assay, cells expressing human glucagon receptor
T7 construct: expressed in transfected cells; host or cells: HEK293s or CHO cells
Description: (§2) One basic cAMP assays was performed, differing in the medium used for the assay, the “BSA-cAMP assay”:
(§3) BSA-based assay medium: 0.1% bovine serum albumin (BSA) in
(§4) In certain aspects, the assay can also be carried out in medium supplemented with serum albumin that corresponds to the receptor being tested, e.g., human serum albumin for testing cAMP activity at hGIPr or hGLP-1r, rat serum albumin for testing cAMP activity at rGIPr or rGLP-1r, and so on. […] All sample dilutions were made in duplicate.
(§5) A frozen cryo-vial of cells expressing the receptor of interest was thawed rapidly in a water-bath, transferred to pre-warmed assay media and spun at 240×g for 5 minutes. Cells were re-suspended in assay buffer at an optimized concentration (e.g., hGLP-1r and hGIPr cells at 0.5×10^5 cells/ml).
(§6) To this, 5 μL cell suspension was added and the plates incubated at room temperature for 30 minutes.
(§7) cAMP levels were measured using a commercially available cAMP dynamic 2 HTRF kit (Cisbio, Cat #62AM4PEJ), following the two step protocol as per manufacturer's recommendations. In brief; anti-cAMP cryptate (donor fluorophore) and cAMP-d2 (acceptor fluorophore) were made up separately by diluting each 1/20 in conjugate & lysis buffer provided in the kit. 5 μL anti-cAMP cryptate was added to all wells of the assay plate, and 5 μL cAMP-d2 added to all wells except non-specific binding (NSB) wells, to which conjugate and lysis buffer was added. […] Data was transformed to % Delta F as described in manufacturer's guidelines and then transformed to percent activation of maximal native agonist response and analysed by 4-parameter logistic fit to determine EC50 values.
(§8) We used unconstrained 4 parameter logistic fit of data, curve mid-point to determine EC50. This was tested on two occasions, not two batches.

[4] = molecular target: T2, mouse GLP-1 receptor (mGLP-1r); assay: BSA-cAMP assay, cells expressing mouse GLP-1 receptor; details: BSA-cAMP assay
Description: as §2, §3, §4, §5, §6, §7, §8
(§9) In order to be able to carry out in vivo studies in rodents, IP088 was tested for potency against the mouse receptors mGIPr and mGLP-1r as well as the rat receptors rGIPr and rGLP-1r, using cells expressing the respective receptors in the cAMP assay described above.

[5] = molecular target: T3, mouse GIP receptor (mGIPr); assay: BSA-cAMP assay, cells expressing mouse GIP receptor; details: BSA-cAMP assay
Description: as §2, §3, §4, §5, §6, §7, §8, §9

[6] = molecular target: T4, rat GLP-1 receptor (rGLP-1r); assay: BSA-cAMP assay, cells expressing rat GLP-1 receptor; details: BSA-cAMP assay
Description: as §2, §3, §4, §5, §6, §7, §8, §9

rat GIP receptor (rGIPr) = molecular target: T5, rat GIP receptor (rGIPr); assay: BSA-cAMP assay, cells expressing rat GIP receptor; details: BSA-cAMP assay
Description: as §2, §3, §4, §5, §6, §7, §8, §9

[7] = batch 1 unless a batch is given, read-out: cAMP activity hGLP1r (EC50)
[8] = batch 1 unless a batch is given, read-out: cAMP activity hGIPr (EC50)
[9] = batch 1 unless a batch is given, read-out: cAMP activity hGCGr (EC50)
[10] = read-out: cAMP activity mGLP1r (EC50)
[11] = read-out: cAMP activity mGIPr (EC50)
[12] = read-out: cAMP activity rGLP1r (EC50)
[13] = read-out: cAMP activity rGIPr (EC50)
[14] = Batch 1, read-out: hGLP1r cAMP activity EC50
[15] = Batch 1, read-out: hGIPr cAMP activity EC50
[16] = Batch 1, read-out: hGCGr cAMP activity EC50
[17] = Batch 1, read-out: mGLP1r cAMP activity EC50
[18] = Batch 1, read-out: mGIPr cAMP activity EC50
[19] = Batch 1, read-out: rGLP1r cAMP activity EC50
[20] = Batch 1, read-out: rGIPr cAMP activity EC50

T7 sequence (P47871 26-477): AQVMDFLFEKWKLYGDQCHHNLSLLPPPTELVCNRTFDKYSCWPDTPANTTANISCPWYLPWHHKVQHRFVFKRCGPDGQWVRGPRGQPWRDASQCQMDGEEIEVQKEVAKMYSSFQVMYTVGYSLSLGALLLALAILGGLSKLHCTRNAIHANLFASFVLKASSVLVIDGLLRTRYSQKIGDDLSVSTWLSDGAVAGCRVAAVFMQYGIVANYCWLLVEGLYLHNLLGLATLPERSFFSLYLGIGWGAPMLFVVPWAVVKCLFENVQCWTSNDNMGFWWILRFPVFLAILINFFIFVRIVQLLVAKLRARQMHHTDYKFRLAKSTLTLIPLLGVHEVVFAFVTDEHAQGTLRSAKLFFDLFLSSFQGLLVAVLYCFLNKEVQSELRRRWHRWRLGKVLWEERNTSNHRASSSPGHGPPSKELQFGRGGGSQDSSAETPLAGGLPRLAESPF
T6 sequence (P43220 24-463): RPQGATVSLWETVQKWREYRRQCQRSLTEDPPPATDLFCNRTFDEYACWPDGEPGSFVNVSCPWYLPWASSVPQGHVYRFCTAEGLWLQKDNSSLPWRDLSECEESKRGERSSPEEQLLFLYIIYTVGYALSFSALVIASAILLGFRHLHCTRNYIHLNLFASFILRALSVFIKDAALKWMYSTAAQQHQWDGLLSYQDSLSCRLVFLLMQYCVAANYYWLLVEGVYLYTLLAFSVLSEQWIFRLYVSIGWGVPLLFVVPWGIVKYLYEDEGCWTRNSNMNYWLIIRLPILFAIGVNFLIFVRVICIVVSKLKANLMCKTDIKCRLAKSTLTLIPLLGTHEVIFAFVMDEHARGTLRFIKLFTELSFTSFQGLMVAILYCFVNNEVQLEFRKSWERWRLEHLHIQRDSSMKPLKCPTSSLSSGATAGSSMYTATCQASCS

Row | EC50 [1, 7] [nM] | EC50 [2, 8] [nM] | EC50 [3, 9] [nM] | EC50 [4, 10] [nM] | EC50 [5, 11] [nM] | EC50 [6, 12] [nM] | EC50 (rat GIP receptor (rGIPr); [13]) [nM] | EC50 [1, 14] [nM] | EC50 [2, 15] [nM] | EC50 [3, 16] [nM] | EC50 [4, 17] [nM] | EC50 [5, 18] [nM] | EC50 [6, 19] [nM] | EC50 (rat GIP receptor (rGIPr); [20]) [nM] | Molecule
1 | 0.65 | 2.2 | > 1400 | 3.2 | 260 | 0.072 | 10 | – | – | – | – | – | – | – | IP246: Fc fusion, IgG1-TM, SEQ ID NO:116; agonist peptide YSEGTFTSDYSKLLEGQAAKLFIEWLVKGP (protein, also: Fc fusion, IgG1-TM, agonist peptide YSEGTFTSDYSKLLEGQAAKLFIEWLVKGP) YSEGTFTSDYSKLLEGQAAKLFIEWLVKGPAAAGGSGSTASSGSGSATGGGGAATHTCPPCPAPEF
2 | 63 | 0.019 | > 420 | 280 | 2.3 | 11 | 0.03 | – | – | – | – | – | – | – | IP247: Fc fusion, IgG1-TM, SEQ ID NO:117; agonist peptide YSEGTFTSDYSKLLEKIHQQLFIEWLVKGP (protein, also: Fc fusion, IgG1-TM, agonist peptide YSEGTFTSDYSKLLEKIHQQLFIEWLVKGP) YSEGTFTSDYSKLLEKIHQQLFIEWLVKGPAAAGGSGSTASSGSGSATGGGGAATHTCPPCPAPEF
3 | – | – | – | – | – | – | – | 0.72 | 0.0054 | > 6790 | 9.2 | 3.2 | 0.9 | 0.035 | IP373 (protein) YSEGTHTSDFSKLLERQAIDEFIAWLLKGGAAAGGSGSTASSGSGSATGGGGAATHTCPPC
4 | – | – | – | – | – | – | – | 0.35 | 3.5 | 3100 | 13 | 3.6 | 0.073 | 0.014 | IP401 (protein) YSEGTHTSDLSKLLERQAIDEFIAWLLKGGAAAGGSGSTASSGSGSATGGGGAATHTCPPC
5 | – | – | – | – | – | – | – | 4 | 0.078 | > 11700 | 49 | 0.65 | 3.9 | 0.07 | IP375 (protein) YSEGTHTSLFSKLLERQAIDEFIAWLLKGGAAAGGSGSTASSGSGSATGGGGAATHTCPPC
6 | – | – | – | – | – | – | – | 2.4 | 0.083 | > 7430 | 21 | 0.55 | 1.3 | 0.13 | IP376 (protein) YSEGTFTSLFSKLLERQAIDEFIAWLLKGGAAAGGSGSTASSGSGSATGGGGAATHTCPPC
7 | – | – | – | – | – | – | – | 110 | 0.0036 | 130 | 820 | 0.0098 | 210 | 0.0063 | IP351 (protein) YSEGTFISDYSIAMDKIHQQDFVNWLLAQKPSSGAPPPSGGGGSGGGGSGGGGSGGGGSACPPC
8 | – | – | – | – | – | – | – | 72 | 0.0096 | 24 | 330 | 0.017 | 22 | 0.0079 | IP321 (protein) YSEGTFISDYSIAMDKIHQQDFVNWLLAGGAAAGGSGSTASSGSGSATGGGGAATHTCPPC
